Here are results for one substance from patent publication US20120183475A1.

The target of test [1] is Human P-selectin (CD62P) on human platelets in whole blood (human) (UniProt P16109). The test is described as follows: flow cytometry, human whole blood, non-activated platelets. For orientation: In flow cytometry, cells or beads pass a laser one at a time.
Test [2] shares this target. The test is described as follows: flow cytometry, human whole blood, platelets activated with 2.5 uM ADP.
Test [3] shares this target. The test is described as follows: flow cytometry, human whole blood, platelets activated with 200 uM TRAP.

Chain of UniProt P16109 (P16109 42-830): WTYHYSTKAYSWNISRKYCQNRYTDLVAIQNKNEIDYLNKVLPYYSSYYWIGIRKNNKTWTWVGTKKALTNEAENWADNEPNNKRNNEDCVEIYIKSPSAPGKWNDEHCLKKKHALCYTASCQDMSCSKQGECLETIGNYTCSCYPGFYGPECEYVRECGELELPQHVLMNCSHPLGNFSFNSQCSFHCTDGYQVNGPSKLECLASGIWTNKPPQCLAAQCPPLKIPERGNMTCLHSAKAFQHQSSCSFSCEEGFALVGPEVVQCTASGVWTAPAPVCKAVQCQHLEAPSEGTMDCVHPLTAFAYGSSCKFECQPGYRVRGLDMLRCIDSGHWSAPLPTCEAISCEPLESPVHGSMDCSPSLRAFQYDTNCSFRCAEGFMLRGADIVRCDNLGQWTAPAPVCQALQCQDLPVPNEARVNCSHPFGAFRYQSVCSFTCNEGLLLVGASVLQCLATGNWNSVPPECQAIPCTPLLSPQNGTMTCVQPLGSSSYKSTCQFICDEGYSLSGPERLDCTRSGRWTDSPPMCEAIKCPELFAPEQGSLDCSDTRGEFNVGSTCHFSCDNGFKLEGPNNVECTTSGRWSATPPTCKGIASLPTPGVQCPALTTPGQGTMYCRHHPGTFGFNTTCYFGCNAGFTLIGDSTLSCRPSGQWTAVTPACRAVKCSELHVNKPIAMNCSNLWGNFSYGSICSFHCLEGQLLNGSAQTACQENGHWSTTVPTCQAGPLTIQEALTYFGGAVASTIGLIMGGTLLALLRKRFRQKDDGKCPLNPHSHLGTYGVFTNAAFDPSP

Take “PC5-labeled antihuman P-selectin (CD62P, AK-4 clone) (antibody)”: the positivity (% of platelets) came to 0.4% in test [1], 73.4% in test [2] and 97.8% in test [3].
